Assay results taken from patent US20100092994A1.
Square brackets hold non-standard residues; d marks the D form. Ends that are not written are not given here. Hyp = O=C(O)[C@@H]1C[C@@H](O)CN1

Key:
[1] = target: monoclonal antibody derived from clone 11A5 (Anti HP-FGA MAb Clone: 11A5; hybridoma FERM AP-21698); assay: competitive ELISA; reference is the unmodified peptide ESS-HP (SEQ ID NO: 2)
[2] = target: monoclonal antibody derived from clone 11G7; assay: as above
[3] = target: monoclonal antibody derived from clone 11A5 (Anti HP-FGA MAb Clone: 11A5; hybridoma FERM AP-21698); assay: competitive ELISA: free peptide prereacted with antibody supernatant, then added to the solid-phased oxidatively modified peptide
[4] = target: monoclonal antibody derived from clone 11G7; assay: as above

fold of 50% inhibition against ESS-HP (SEQ ID NO: 2) [1]: > 25 times | fold of 50% inhibition against ESS-HP (SEQ ID NO: 2) [2]: > 25 times | IC50 [3]: 0.4 mg/L | IC50 [4]: 0.4 mg/L
B1: synthetic peptide ESS (SEQ ID NO: 4), ESSSHHP(OH)GIAEFPSR, oxidatively modified FGA partial peptide (peptide)
peptide: ESSSHH[Hyp]GIAEFPSR
